Measured values reported in patent US20100233157A1 (published 2010).

Key:
[1] = biological target: T1, Human Fas (CD95) on the cell surface (human, UniProt P25445 26-335); assay: cell-based or functional assay
T1 sequence: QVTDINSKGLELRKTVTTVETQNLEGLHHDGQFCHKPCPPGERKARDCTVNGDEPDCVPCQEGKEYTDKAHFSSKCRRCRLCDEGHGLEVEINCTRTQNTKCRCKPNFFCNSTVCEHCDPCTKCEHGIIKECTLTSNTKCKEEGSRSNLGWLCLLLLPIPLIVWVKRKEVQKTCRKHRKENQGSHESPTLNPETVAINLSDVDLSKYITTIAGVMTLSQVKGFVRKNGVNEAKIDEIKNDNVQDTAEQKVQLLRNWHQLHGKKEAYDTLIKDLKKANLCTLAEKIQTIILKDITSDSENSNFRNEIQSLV

[2] = biological target: T2, Common marmoset Fas on the cell surface (common marmoset (Callithrix jacchus)); assay: flow cytometry on the marmoset B cell line 9505, FITC anti-human IgG secondary, MFI after subtraction of the control human γ1 staining
T2 construct: whole, on cells
Source text: (§1) Reactivity of F45D9-γ1 or F45D9-γ4 mAb with Fas molecules of various species was initially screened using primary blood cells or lymphocytes cell lines. The binding of F45D9-γ1 or F45D9-γ4 mAb was explored by immunofluoresce staining and flow cytometry analysis, in human PBMC, purified human resting T cells, activated human T cells, peripheral blood lymphocytes (PBL) derived from BALE/c mice, rat, dog and pig, and in B cell lines or PBL derived from common marmoset, cynomolgus macaque, olive baboon, rhesus macaque and chimpanzee. Resting and activated human T cells were prepared as described in Example 7. B cells lines from monkeys were obtained from Biomedical Primate Research Center (Rijswijk, The Netherlands), and were cultured in RPMI 1640 medium supplemented with 2 mM glutamax, 100 UI/mL penicillin, 100 μg/mL streptomycin and 10% fetal bovine serum, at 37° C. and 5% CO₂. After washing in PBS cells (0.2−0.4×10⁶ cells/well) were incubated in staining buffer (PBS/1% FBS) containing F45D9-γ1 or human IgG control antibodies (10-20 ug/ml) in a 96-well U-bottom plate for 30 min on ice, in a 100 ul/well volume. Cells were then washed once with staining buffer, and further incubated for 30 min on ice with 1:30 dilution of FITC-conjugated rabbit F(ab′)₂ anti-human kappa (DakoCytomation Cat. F0434) or FITC-conjugated rabbit F(ab′)₂ anti-human IgG (DakoCytomation Cat. F0056). […]

[3] = biological target: T3, Chimpanzee Fas on the cell surface (chimpanzee, UniProt K6ZIR5 26-335); assay: flow cytometry histograms (FL1-H) on chimpanzee cells (cell type not printed on the sheet), FITC anti-human IgG secondary
T3 construct: also called Fas on chimpanzee B cell line
T3 sequence: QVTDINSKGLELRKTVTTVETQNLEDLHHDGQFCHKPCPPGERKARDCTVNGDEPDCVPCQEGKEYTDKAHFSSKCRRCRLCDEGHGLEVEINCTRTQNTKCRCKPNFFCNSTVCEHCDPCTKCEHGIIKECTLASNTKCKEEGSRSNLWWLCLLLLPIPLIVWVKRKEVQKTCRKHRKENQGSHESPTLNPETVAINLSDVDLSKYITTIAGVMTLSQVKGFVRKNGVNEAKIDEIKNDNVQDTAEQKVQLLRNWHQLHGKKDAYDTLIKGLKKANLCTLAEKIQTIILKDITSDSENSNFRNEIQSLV
Source text: as §1

[4] = biological target: T4, Cynomolgus macaque Fas on the cell surface (cynomolgus macaque, UniProt Q9TSN4 26-331); assay: flow cytometry histograms (FL1-H) on cynomolgus macaque cells (cell type not printed on the sheet), FITC anti-human kappa or FITC anti-human IgG secondary
T4 construct: whole, on cells; also called Fas on cynomolgus macaque B cell line and PBL
T4 sequence (looked up): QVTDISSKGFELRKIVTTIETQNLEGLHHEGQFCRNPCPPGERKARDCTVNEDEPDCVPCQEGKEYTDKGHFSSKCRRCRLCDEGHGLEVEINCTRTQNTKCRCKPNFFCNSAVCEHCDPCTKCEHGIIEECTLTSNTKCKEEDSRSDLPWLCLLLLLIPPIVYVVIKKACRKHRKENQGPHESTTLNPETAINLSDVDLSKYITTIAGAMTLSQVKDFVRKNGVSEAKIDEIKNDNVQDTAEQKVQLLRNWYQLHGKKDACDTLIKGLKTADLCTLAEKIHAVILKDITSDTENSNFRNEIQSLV
Source text: as §1

IC50 of inhibition of rhFasL-induced apoptosis in SKW6.4 cells (Annexin-V/PI, flow cytometry) [1]: 0.2 nM
IC50 of inhibition of rhFasL-induced apoptosis in activated human T cells (Annexin-V/PI, flow cytometry) [1]: 0.02 nM
share of binding capacity on Jurkat cells at which complete blocking of FasL-induced apoptosis is achieved [1]: ≥ 12.5%
EC50 (read off the curve) [2]: ~2 µg/mL
binding result [3]: binds
binding result [4]: no binding
B1: F45D9-γ1 mAb (recombinant human mAb T17/B2-1G4, gamma-1 isotype) (antibody, V domains shown)
VH: QVQLQQWGAGLLKPSETLSLICAVYGGSFSTYYWTWIRQPPGKGLEWIGEINHRGTTNYSPSLKSRVTISVDTSKNHISLNLTSVTAADTALYYCARGLLWIGEGDYGLDVWGQGTTVTVSS
VL: DIQMTQSPSSLSASVGDRVTITCRASQGIRRWLAWYQQKPEKAPKSLIYAASSLQSGVPSRFSGSGSGTDFTLTISSLQPEDFATYYCQQYNSYPYTFGQGTKLEIKR
notes: Whole human IgG1 (γ1fa allotype) with human kappa light chain, made in CHO DG44 cells; also called IgG1; T17/L18/B2-1G4
